{"source": "the supplement of paper PMC12636428", "data": [{"test_system": "Saccharomyces cerevisiae", "test": "transcriptional activation domain activity (GFP:mCherry ratio, weighted mean of sorted bins, harmonized to initial dataset scale) (arbitrary fluorescence ratio units); higher = stronger transcriptional activation", "details": "beta-estradiol 1 µM; induction time 4 h", "in_short": "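Protein tiles carrying barcodes and fused to an estradiol-inducible synthetic transcription factor were placed at the URA3 locus of yeast diploids with a GFP reporter. Following 4 hours at 30 °C in SC with 1 uM beta-estradiol, cells were sorted into 8 GFP:mCherry bins, barcodes were sequenced, and tiles with fewer than 50 reads were discarded. Activation activity is given as the read-weighted mean of bin median fluorescence, averaged across barcodes and linearly mapped to the initial dataset scale.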", "values": [{"sequence": "PQHCLDLNFMMALLHTGYGMPLEREVKIAKKIKGNELGWCLGASLPLLSKESG", "transcriptional activation domain activity": 84000}, {"sequence": "GHVRSHNDERPFACGWAGCERAFARQHDCRRHEQRHARDLEREREREFACAGC", "transcriptional activation domain activity": 38100}, {"sequence": "MASEQVEEVTKKVADVAIEAPAAAPAKAPKAPKAPKAKKAKKEAAEGSSPLEL", "transcriptional activation domain activity": 13700}, {"sequence": "VMLSFFICRPILRLLHVFHISSPIYLYLPFVPLHLLIYPSFLIDVGLLSMVLA", "transcriptional activation domain activity": 65200}, {"sequence": "AFGGGNTTGGGMFGNNTSKPAFGGTSNTGGALFGGGSNTNTGTAGFGTSFGGT", "transcriptional activation domain activity": 13900}, {"sequence": "VKAVVICLLICETLQITFFFCATYWLLIDHFGDFNALVVITWHESVQLLAGYL", "transcriptional activation domain activity": 45200}, {"sequence": "LACFLGLTFTLFLLIYFFFLSIFSFIILSLLCVLHHSACLPCLNFHMLPFCPF", "transcriptional activation domain activity": 61100}, {"sequence": "MYGLVFLLPLFCSLLLFLFCFCCLSPRPTWGLFVSIELFLQARDGLVNWLLAF", "transcriptional activation domain activity": 50100}, {"sequence": "AAAAKPASGAKTGGKGKGAKSKKSKATVESEDEGEGADGAPAKKKTKKGKTSD", "transcriptional activation domain activity": 44200}, {"sequence": "LRAIFLALLPVVYYFTYMLVLFLFLLTYYNPFSPFSHAVRPITPPLISIFSSF", "transcriptional activation domain activity": 67800}, {"sequence": "LLVFICAAPYAAYREGNNLIVSSYFCSSFLVFNFYMRLDCGLSWMKHTLLFIV", "transcriptional activation domain activity": 44700}, {"sequence": "MDAYFFFVFLSFLFFYIFFLLFSILLLFSFYFLCSGVHNMCFLVGVWLWSRGG", "transcriptional activation domain activity": 35800}, {"sequence": "MPYKKGHFVWILVYAIAVQSGNVMKKRVGVVTLVLKMPSRKILPPWSTLVCKT", "transcriptional activation domain activity": 47300}, {"sequence": "EEEKPKEEKPKEEKPEEEKPEEQKPEEEKPKEKPEEQKPEAPAPTPAPEPAPE", "transcriptional activation domain activity": 23200}, {"sequence": "EKRYGPMLDPKNPLHYMWQLVYNILSLKLHIMLLFRYASNMHRIMPERLRQTV", "transcriptional activation domain activity": 58300}, {"sequence": "MDGEPANPAVSAPTTRRRRRRPALVCEQCRVRKIKCDRGSPCSKCARGRRSHL", "transcriptional activation domain activity": 42000}, {"sequence": "RLQRDGQAGAGRGEARGGRGPVAGGQGAQHAGPVRRHRRQRRAGHLHGRKQHQ", "transcriptional activation domain activity": 32800}, {"sequence": "KQYCVRPNSGRIEAGKEVEVQVLLQAMKEDPPPDARCRDKFLVQSVAVTADQE", "transcriptional activation domain activity": 37200}, {"sequence": "SAKSLRLTVDEVKMLHRPALWYLIVGLVDTVAAARLRYFSFILHRPPLRQTLS", "transcriptional activation domain activity": 47800}, {"sequence": "MGEEDAKVGAGPALQVIVLGSGGGPQENNVTALLVRSVNSNWARGSMLALDAG", "transcriptional activation domain activity": 36500}, {"sequence": "VNLHRARLRSCLDIIHLHIALGSTKRGLERVFELRRMLVSLLALHPFFRPTST", "transcriptional activation domain activity": 46100}, {"sequence": "ERKRRAKQKEKEERKKKKKKNANSKDARQRSESSSRREKRKDEDSDDEEEEGG", "transcriptional activation domain activity": 35700}, {"sequence": "PPPARAARPARRRGRGCQRRMSSRLCRGREGGGGGGVRLPVQVGVVMVVQLGR", "transcriptional activation domain activity": 73100}, {"sequence": "SPTRAYVGANTNSKNASFNDADLLSSSYWIKAYNDHLFSVSESDETSPMNSEL", "transcriptional activation domain activity": 38800}, {"sequence": "VAVTFHTEPHRLVSIIPALISIWDYILGLSPAELSSCTGIHWCIYILTIIFGF", "transcriptional activation domain activity": 55400}, {"sequence": "MHITCPRLWGHCSWCVVLPFIFHTFLYCIPTFCCFLVHISAILFIGFSFLGSL", "transcriptional activation domain activity": 55600}, {"sequence": "MTGRHLWGIGVLFLPLLFFLLDFPFFSFSFLLMCLCEILSIFFWLHFSLGREG", "transcriptional activation domain activity": 44900}, {"sequence": "FLSCMPFVFLTVVCSTLCMYFAKVFPTNNPVFLPLLLLHTFIHILSVVSFGLL", "transcriptional activation domain activity": 33300}, {"sequence": "IILRIVGAPNWIQFWSLGRNQVDLLLVISTCVIQLPMIQNLDIYKYLTIFQVF", "transcriptional activation domain activity": 81300}, {"sequence": "HMESDEEKERKPKKARKQKAEGSGDEAEPKKKRRGKLKRGGGDHEEAAVAAGE", "transcriptional activation domain activity": 39200}, {"sequence": "MFFRRFLMYFVELTGIMYCLIVFFMVSLFLLYRRNMIEEQFPNKTIILYGKRV", "transcriptional activation domain activity": 58500}, {"sequence": "LASIVMFRTFHEGSTWTGLTRTRMFWYVFLFSFFWYWVPGYIMPILSFFSILC", "transcriptional activation domain activity": 69200}, {"sequence": "PVRGIVELPRNSFPDEVLHFTCLTIVCAAIFFLFSSFLFFFCLLHLSCYLFVP", "transcriptional activation domain activity": 30800}, {"sequence": "MPSAYHLGITPFGVHQWDINLRTLQRYLFFLYCCWIIWGILVLLLKVIILLQY", "transcriptional activation domain activity": 39700}, {"sequence": "SPDDFDQTLPLDLSDENITEVAYLPENQHSVLSSTGISNEHTKLFLILNEIIS", "transcriptional activation domain activity": 63000}, {"sequence": "MLAYTHFLIMLDRDILNICCVIYFYCLVFICLLLTFLLLIAPLNTCVGLCWKG", "transcriptional activation domain activity": 54400}, {"sequence": "MGFASFRKESFCRIGTKELMCARMCLLCPLARSLIFMVLRVVLLLSTLLLVFL", "transcriptional activation domain activity": 61900}, {"sequence": "YLIGFIGFVMSLQKQYLKSQFGLFCWVHMSLLVIVVSSHFIINNIFEGLIWFW", "transcriptional activation domain activity": 79300}, {"sequence": "NAEYICHYKGGLIGKHFKSLAQVMPFLIQDLLLRTVLDGWTCIGELVVYVWHM", "transcriptional activation domain activity": 65800}, {"sequence": "GERDIDVSSIEDVVKRECKKRVENEKLAQVGYAYDLAHSKAAAHLEAVKKLRK", "transcriptional activation domain activity": 32900}, {"sequence": "SMRDSASDQETSWELQMFKTENVPESTTLPAVDNNNLFDAVASPLADPLCDDI", "transcriptional activation domain activity": 53300}, {"sequence": "PKPVPEQEMKDAAEKPEPEETKAAGEVKPEDAMEVDQTSKPAKSKKGKIVKRR", "transcriptional activation domain activity": 24400}, {"sequence": "MILYTWFFLRSPFFIFGILWVHGLVDRFLFCHLLVVYFCHLVNFFIHLKYANE", "transcriptional activation domain activity": 55700}, {"sequence": "IGSLLCERADVIARLVSYLLRRYAIDGFRTILLWLNDWPVGLKLNYHLASHFC", "transcriptional activation domain activity": 56800}, {"sequence": "GGDSVVDILFSQTSATEFVTVGGTGNVYHWDMEYSFSRNDDDNEDEVRVAAPE", "transcriptional activation domain activity": 38300}, {"sequence": "MKFLPFRFADLQANNFILFYFLYLMLACYLYPICIYTGKLFVIFPFIFLFFVP", "transcriptional activation domain activity": 55000}, {"sequence": "VYCQVLLNHKYRAYGGGYRAETIIYSFGRLSDLLYFVPVVVGRMEMRMGLTLK", "transcriptional activation domain activity": 52200}, {"sequence": "MSIVPVNSTYTLCILLMFVMLETTLYDPPLCGCMARLVTMFYGFFYGFFIYLI", "transcriptional activation domain activity": 61000}, {"sequence": "PFSNFFSNLFLYLFFDLFSNFFFIFSLPFILFHIISSIFNLNFNLLLLLIHLF", "transcriptional activation domain activity": 65800}, {"sequence": "WGLIIGLVGLNAALIYIGWRYYEVYYFLLVLLSSNTILQTFMCFCIMLHWFCT", "transcriptional activation domain activity": 40400}, {"sequence": "GESSSKPPKKRGRPRKNPLPPAEPSGADEGETSAPAAEPNPPKRKRGRPRKDS", "transcriptional activation domain activity": 34600}, {"sequence": "ILCASLHLLGHLPFRFCDVVLLFICHMFQELGRFDLIPGPVAHLTLRHSIVAA", "transcriptional activation domain activity": 63500}, {"sequence": "MDYVWRRVRWIRVRKHMVFIATLLEPFTECMLVCLIGALSARHLFDIRLVVFY", "transcriptional activation domain activity": 49000}, {"sequence": "MSENTAVENVTATLEKTKLEAPVTNEAEVAHAASAAEGRRLYIGNLAYSTTEE", "transcriptional activation domain activity": 33100}, {"sequence": "MCRCFFWSFLVFFVFFSLLCLFVSFCVFLCFAFLCFVFFVFCFFCFFCLFCVF", "transcriptional activation domain activity": 56600}, {"sequence": "LSGLFSGYLCLFVSGFHIVMTEGILVIGYLVSPVFLFFFPLPFIFVMFPLHFV", "transcriptional activation domain activity": 76700}, {"sequence": "ESSEEDEEGGEGEGRKAKRNRMALSCKECKRRKIKCDRAMPSCGPCSKRGASS", "transcriptional activation domain activity": 27200}, {"sequence": "GGEGALTVAASARERERERERDREEREKREKRERARESQAVKRKKRPAEKEPP", "transcriptional activation domain activity": 38000}, {"sequence": "MKVDSYTDYLTGIFIHCGLYDTNHDPNYPALYYRCVLLDSTWLVGLLTCFLWL", "transcriptional activation domain activity": 65100}, {"sequence": "LETGSFQNYYQKMDAENADRVYSKGVKLIASGTLPSGIFNREELFEEDSFYKY", "transcriptional activation domain activity": 68400}, {"sequence": "GFTTLSMMHATVFHGDLISFKHFLELYRHSPLLILYICGYKNTEYYAARYFYS", "transcriptional activation domain activity": 34700}, {"sequence": "MGLGFFSFFLSVFSFFLFPFFFFGCEFIYLFLVFWWRVDFSPMAERHSVEAGP", "transcriptional activation domain activity": 53000}, {"sequence": "DLHLICNMVNGSTTFHSGESWTPVCLPRFNSKGFLHAYVCFVAKETCLVLISP", "transcriptional activation domain activity": 30300}, {"sequence": "MPSFTFAWPDRAYFYSLLVVSLLSAKFLHLFSHLTALPIFLFLLYFPTFVFLD", "transcriptional activation domain activity": 71900}, {"sequence": "EESAEEKQEEEDSADAKKQKTNGDAEEIEEAGENDEEKAEESTSKKKGRPAKN", "transcriptional activation domain activity": 25100}, {"sequence": "VMSYLLCVALVFPVMIVLMLLGCVWFLIVLFFMLGVLIFIMCIGPLYVILKAP", "transcriptional activation domain activity": 10200}, {"sequence": "QAHPPVQVRKTSHKAAEQKRRDSLKTTFDDLRGTASAAAPPVGRHGRACAPGA", "transcriptional activation domain activity": 35300}, {"sequence": "GSWMILRILLHQLLDSVQYIPEYKDIAALRYRGPTYYFQELQKAFYHVLDAVP", "transcriptional activation domain activity": 65200}, {"sequence": "PKQYCVRPNAARLEPGERVEVQVLLQPMKEDPPEDTKCRDKFLIQSAAIPPQH", "transcriptional activation domain activity": 39200}, {"sequence": "QQTGKGKIHRQYALVVVGNGDGLVGYGEGKDEELPRASDKAFAAAVRNMDHVE", "transcriptional activation domain activity": 43700}, {"sequence": "FITSLMLFQAVPCFLVHVIMLFPFFRNFPHQFRYRDPFTMVLLSFSFIFLFTF", "transcriptional activation domain activity": 62700}, {"sequence": "NSSEEEDRNRRERKRKREKEREKKKESRRHRSRSRRSKEVEDDDEKDRKRHRR", "transcriptional activation domain activity": 14500}, {"sequence": "SMDQIREYNTRLQLVNAQSFDYTDNPYSFNVGINQDSAVFDLMTSPFTQEEVL", "transcriptional activation domain activity": 112000}, {"sequence": "MLHLAALSPLMLLVFLLFSLFFKFFATFIWLYIMAYILITTLIIVFRITLPAN", "transcriptional activation domain activity": 68500}]}]}
